First the molecules themselves.
B1: TPR 5TU (parent)
chain: GGAUCUUCUCGAUCUAACAAAAAAGACAAAUCUGCCACAAAGCUUGAGAGCAUCUUCGGAUGCAGAGGCGGCAGCCUUCGGUGGCGCGAUAGCGCCAACGUUCUCAACUAUGACACGCAAAACGCGUGCUCCGUUGAAUGGAGUUUAUCAUG

This sample holds only a part of the variants without activity.

The variants in the data set derive from B1. The data set is described as follows: polymerase ribozyme fitness, log enrichment relative to wild type (log ratio); higher = more active; in vitro selection for triplet polymerase activity. An outline of the steps: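 Mutant libraries of each subunit of a heterodimeric triplet polymerase ribozyme were built by PCR and transcribed. Each library went through one round of in vitro selection in triplicate: annealing with biotinylated primer, partner subunit and triplets, frozen incubation at −7 °C, gel excision of extended constructs, streptavidin-bead capture and RT-PCR. Input and output libraries were Illumina-sequenced; only genotypes with ≥10 input reads and ≥1 read per output were kept. Fitness is log2(genotype enrichment/wild-type enrichment), using inverse-variance-weighted replicate averages.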
With GGAUCUUCUCGAUCUAACAAAAAAGACAAAUCUGCCACAAAGCUUGAGAGCAUCUUCGGAUGUAGAGGCGGCAGCCUUCGGUGGUGCGAUAGCGCCAACGUUCUCAACUAUGUCACGCAAAACGCGUGCUCCGUUGAAUGGAGUUAAUCAUG [C63U C85U A113U U146A], the “polymerase ribozyme fitness (log ratio)” value is -3.03.

Take GGAUCUUCUCGAUCUAACAAAAAAGACAAAUCUGCCACAAAGCUUGAGAGCAUCUUAGGAUGCAGAGGCGGCAGCCUUCGGUGGCGCUAUAGCGCCAACGUUCUCAACUAUGACACGCACAACACGUGCUCCGUUGAAUGGAGUUUAUAAUG [C57A G88U A120C G124A C149A]: the “polymerase ribozyme fitness (log ratio)” value was at most -4.2.

For the variant GGAUCUUCUCGAUCUAACAAAAAAGACAAAUCUGCCACAAAGCUUGAGAGCAUCUUCAGAUGCAGAGGCGGCAGCCUUCGGUGGCGCUAUAGCGCUAACGUUCUCAACUAUGACACGAAAAACGAGUGCUCCAUUGAAUGGAGUUUAUCAUG [G58A G88U C96U C118A C125A G133A], the “polymerase ribozyme fitness (log ratio)” value is at most -4.2.

As for GGAUCUUCUCGAUCUAACAAAAAAGACAAAUCUGACACAAAGCUUGAGAGCAUCUUCGGAUGCAGAGGCGGCAGCCUUCGGUGGCGCGAUAGGGCCACUGUUCUCAACUAUGACACGCAAAACGCGUGCUCCGUUGAAUGCAGUUUAUCAUG [C35A C93G A98C C99U G141C], the “polymerase ribozyme fitness (log ratio)” value is at most -4.2.

As to GGAUCUUCUCGAUCCAACAAAAAAGACAAAUCUGCGACAAAGCUUGAGAGCAUCUUCGGAUGCAGAGGCGGCAGCCUUCGGUGGCGCGAUAGCGCCAACGUUCUCAACUAUGACACGCAAAACGCGUGCUCCGUUGAAUGGAGUUUAUCAUG [U15C C36G], the “polymerase ribozyme fitness (log ratio)” value was -3.28.

In the case of GGAUGUUCUCGAUCUAACAAAAAAGACAAAUCUGCCACAAAGCUUGAGUGCAUCUUUGGAUGCAGAGGCGGCAGCCUUCGGUGGCGCGAUAGGGCCAACGUUGUCAACUAUGACACGCAAAACGCGUGCUCCGUUGAAUGGAGCUUAUCAUG [C5G A49U C57U C93G C103G U144C], the “polymerase ribozyme fitness (log ratio)” value is at most -4.2.

Take GGAUCUUCUCGAUCUAACAGAAAGGACAAAUCUGCCACAAAGCUUGAGAGUAUCUUCGGAUGCAGAGGCGGCAGCCUUCGGUGGUGCGAUAGCGCCAACGUUCUCAACUAUGACACGCAUAACGCGUGCUCCGUUGAAUGGAGUUUAUGAUG [A20G A24G C51U C85U A120U C149G]: the “polymerase ribozyme fitness (log ratio)” value was at most -4.2.

For the variant GGAUCUUCUCGAUCUAACAAAAAAGAUAAAUCUGCCCCAAAGCUUGAGAGCCUCUUCGGAUGCAGAGGCGGCAGCCUUCGGUGGCGUCAUAGCGCCAACGUUCUCAACUAUGACACGCAAAACGCGUGCUCCGUUGAAUGGAGUUUAUCAUG [C27U A37C A52C C87U G88C], the “polymerase ribozyme fitness (log ratio)” value was at most -4.2.

GGAUCUUCUCGUUCUAACAAAAAAGACAAAUCUGCCACAAAGCUUGAGAGCAACUACGGAUGCAGCGGCGGCAGCCUUCGGUGGCGCGAUAGCGCCAACGUUCUCAACUAUGCCACGCAAAACGCGUGCUCCGUUGAAUGGAGUUUAUCAUG [A12U U53A U56A A66C A113C]: the “polymerase ribozyme fitness (log ratio)” value was at most -4.2.

Turning to GGAUCUUCUCGAUCUAACAAAAAAGACAAAACUGCCACAAAGCUUGAGAGCAUCUUCGAAUGCAGAGGCGGCAGCCUUCGGUGACGCGAUAGCGCCAACGUGCUCAACUAUGACACGCAAAACGCGUCCUCCGUUGAAUGGCGUUUAUCAUG [U31A G59A G84A U102G G128C A142C], the “polymerase ribozyme fitness (log ratio)” value is at most -4.2.

Turning to GGAUCUUCUCGAUCUAACAAAAAAGACAAAUCUGCCACAUAGCUUGAGAGCAUCUUCGGAUGCAGAGGCGGCAGCAUUAGGUGGCGCGAUAGCGCCAACGUUCUCAACUAUGAUACGCAAAACGCGUGCUCCGUUGAAUGGAUUUCAACAUG [A40U C76A C79A C114U G143U U146C U148A], the “polymerase ribozyme fitness (log ratio)” value was at most -4.2.

As to GGAUCUUCUCGAUCUAACAAAAAAGUCAAAUCUGCCACAAAGCUUGAGAGUUUGUUCGGAUGCAGAGGCGGCAGCCUUCGGUGGCUCGAUAGCGCCAAAGUUCUCACCUAUGACACGCAAAAGGCGUGCUCCGUUGAAUGGAGUUUAUCAUG [A26U C51U A52U C54G G86U C99A A107C C123G], the “polymerase ribozyme fitness (log ratio)” value was at most -4.2.

Take GGAUCUUCUCGAUCUUACAAACAAGACAAAUCUGCCACAAAGCUUGAGAGCAUCUUCGGAUGCAGAGGCGGCAGCCUUCGGUGGCGCGAUAGCGCCAACGUUCUCAACUAUGACACGCAAAACGCGUGCUCCGUUGAAUGGAGUUUAUCAUG [A16U A22C]: the “polymerase ribozyme fitness (log ratio)” value was -2.41.

Consider GGAUCUUCUCGAUCUAACAAAAAAGACAAAUCUGCCACAAAGCUUGAGCUCAUCUUCGGAUGCAGAGGCGCCAGCCUUCGGUGGCGCGAUAGCCCCAACGUUCUCAACUAUGACACGCAAAACGCGUGCUCCGUUAAAUGGAGCUUAUCAUG [A49C G50U G71C G94C G136A U144C], for which the “polymerase ribozyme fitness (log ratio)” value is at most -4.2.

As to GGAUCUUCUCGAUCUAACAAAAAAGACAAAUCUGCCACAAAGCUUGAGAGCAUCUUCGGAUGCAGAGGCGGCAGCCUUCGGUGGCGCGAUACCGCCAACGUUCUCAACUAUGACACGCAAAACGCGUGCUCCGUUGAAUGGUGUUUAUCAUG [G92C A142U], the “polymerase ribozyme fitness (log ratio)” value was -2.07.

GGAUCUUCUCGAUCUAACAAAAAAGACAAAUCUGCCACAAAGCUUGAGAGCAUCUUCGGCUGCAGAGGCGGCAGCCUUCGGUGGCGCGAUAGCGCCAACGUUCUGAACUAUGACACGCAAAACGCGUGCUCCGUUGAAUGGAGUUUAUCAUG [A60C C105G]: the “polymerase ribozyme fitness (log ratio)” value is -3.44.

Regarding GGAUCUUCUCGAUGUAACAAAAAAGACAAAUCUGCCACAAAGCUUGAGAGCAUCUUCGGAUGCAGAGGCGGCAGCCUUCGGUGACGCGAUAGCGCCAACGUUCUCAACUAUGACACGCAAAACGCGUGCUCCGUUGAAUGGAGUUUAUCAUG [C14G G84A], the “polymerase ribozyme fitness (log ratio)” value was -2.16.

For the variant GGAUCUUCUCGAUCUAACAAAAAAGACAAAUCUGCCACAAAGCUUGAGAGCAUCUACGGAUGCAGGGGCGGCAGCCUUCGGUGGCGCGAUAGCGUCAAUGUUCUCAACUAUGACACGCAGAACGCGUGCUCCGUUGAAUGGAGUUUAUCAUG [U56A A66G C95U C99U A120G], the “polymerase ribozyme fitness (log ratio)” value is at most -4.2.

With GGAUCUGCUCGAUCUAACAAAAAAGACAAAUCUGCCACAAAGCUUGAGAGCAUCUUCGGAUGCAGAGGCGGCAGACUUCGGUGACGCGAUAGCUCCAACGUUCUCUACUAUGACACGCACAACGCGUGCUCCGUUGAAUGGAGUUUAUCAUG [U7G C75A G84A G94U A106U A120C], the “polymerase ribozyme fitness (log ratio)” value was at most -4.2.
